Source: patent US20220403048A1 (CANCER RESEARCH TECHNOLOGY, published 2022)
Substitutions are numbered along the chain they refer to.

T1: recombinant human monomeric ARG2 (human, UniProt P78540 23-354)
T1 sequence (looked up): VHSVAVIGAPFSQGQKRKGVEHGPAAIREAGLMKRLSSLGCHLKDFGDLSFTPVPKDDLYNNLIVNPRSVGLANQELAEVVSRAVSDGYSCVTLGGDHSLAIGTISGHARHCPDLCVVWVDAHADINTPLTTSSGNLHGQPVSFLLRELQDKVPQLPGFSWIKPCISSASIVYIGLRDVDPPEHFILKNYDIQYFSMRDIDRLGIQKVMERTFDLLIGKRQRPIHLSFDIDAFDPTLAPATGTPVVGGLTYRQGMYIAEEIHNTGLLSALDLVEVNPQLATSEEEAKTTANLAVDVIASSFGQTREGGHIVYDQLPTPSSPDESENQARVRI

T2: biotinylated recombinant cynomolgus monkey trimeric ARG2 enzyme (Avi-cynoARG2-His10) (cynomolgus monkey, UniProt P78540 23-354 (human entry), biotinylated)
T2 construct: also called cynomolgus ARG2
T2 chain: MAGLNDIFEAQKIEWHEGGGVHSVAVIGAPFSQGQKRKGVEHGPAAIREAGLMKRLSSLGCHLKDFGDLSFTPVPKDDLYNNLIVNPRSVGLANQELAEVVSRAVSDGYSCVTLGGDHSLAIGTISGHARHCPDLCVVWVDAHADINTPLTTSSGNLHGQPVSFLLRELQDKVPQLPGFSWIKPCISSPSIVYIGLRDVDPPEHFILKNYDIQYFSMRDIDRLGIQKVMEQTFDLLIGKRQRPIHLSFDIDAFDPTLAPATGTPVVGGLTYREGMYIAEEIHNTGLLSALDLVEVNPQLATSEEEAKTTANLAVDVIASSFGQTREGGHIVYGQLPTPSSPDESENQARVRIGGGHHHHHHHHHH

T3: biotinylated recombinant human trimeric ARG1 enzyme (Avi-huARG1-His10) (human, UniProt P05089 1-322, biotinylated in HTRF and streptavidin BLI assays)
T3 construct: also called Human ARG1; recombinant ARG1
T3 sequence: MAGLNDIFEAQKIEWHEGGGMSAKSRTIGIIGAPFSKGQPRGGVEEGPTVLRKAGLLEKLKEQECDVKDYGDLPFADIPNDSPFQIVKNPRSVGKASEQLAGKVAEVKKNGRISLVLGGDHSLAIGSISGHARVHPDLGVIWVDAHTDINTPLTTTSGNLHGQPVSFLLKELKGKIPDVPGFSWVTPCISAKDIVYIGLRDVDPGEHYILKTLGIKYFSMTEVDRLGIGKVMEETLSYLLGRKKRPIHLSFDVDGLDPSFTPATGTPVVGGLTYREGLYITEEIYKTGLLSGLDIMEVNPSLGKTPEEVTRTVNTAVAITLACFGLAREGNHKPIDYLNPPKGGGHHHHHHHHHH

T4: THP-1 lysate derived human trimeric ARG2 (human, UniProt P78540 23-354, limits assumed)
T4 sequence (looked up): T1 sequence (looked up) with Q253E

T5: recombinant human trimeric ARG2 enzyme (construct not given) (human, UniProt P78540 23-354)
T5 sequence (looked up): T1 sequence (looked up) with Q253E

T6: biotinylated recombinant human trimeric ARG2 enzyme (Avi-huARG2-His10) (human, UniProt P78540 23-354, biotinylated)
T6 construct: also called avi-Arg2-His10; bio-ARG2
T6 chain: T2 chain with P189A, Q231R, E273H, R325K, G333D

B1: C0020065 recombinant human IgG1 (antibody, V domains shown)
VH: GVNLRESGGGVVQPGRSLRLSCAASGFTFSSYAMHWVRQAPGKGLEWVAVISYDGSNKYYVDSVKGRFTISRDNSKNTLYLQMNSLRAEDTAVYYCARDSSQLWFDYWGRGTLVTVSS
VL: QSVVTQPPSVSGAPGQRVTISCTGSSSNIGTGYDVHWYQQLPGTAPKLLIYGNSNRPSGVPDRFSGSKSGTSASLAITGLQAEDEADYYCQSYDSSLSGSVVFGGGTQLTVL
B2: C0020065 scFv (scFv, V domains shown)
VH: B1 VH
VL: B1 VL
notes: c-myc tagged scFv
B3: C0020187 recombinant human IgG1 (antibody, V domains shown)
VH: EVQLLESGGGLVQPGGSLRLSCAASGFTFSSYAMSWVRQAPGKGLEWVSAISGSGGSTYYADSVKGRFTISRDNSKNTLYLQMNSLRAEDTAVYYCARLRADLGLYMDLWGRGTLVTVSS
VL: QSVLTQPPSVSAAPGQKVTISCSGSSSNIGNHYVSWYQQLPGTAPKLLIYDNSERPSGIPDRFSGSKSGTSATLGITGLQTGDEADYYCGTWDSSLSALVFGGGTKLTVL
B4: C0021158 recombinant human IgG1 (antibody, V domains shown)
VH: EVQLLESGGGLVQPGGSLRLSCAASGFTFRYEVAAWVRQAPGKGLEWVSAISGPIPKGYYADSVKGRFTISRDNSKNTLYLQMNSLRAEDTAVYYCARLRADLGLYMDLWGRGTLVTVSS
VL: B3 VL with P56T, S57A, I59V, S94E, S95L, L96T, A98N
B5: C0021158-fgl2 recombinant human IgG1 (antibody, V domains shown)
VH: B4 VH
VL: B3 VL with S53A, P56T, S57A, S94E, S95L, L96T, A98N
B6: C0021158 Fab (Fab, V domains shown)
VH: B4 VH
VL: B3 VL with P56T, S57A, I59V, S94E, S95L, L96T, A98N
notes: Human Fab
B7: C0021181 Fab (Fab, V domains shown)
VH: EVQLLESGGGLVRPGGSLRLSCAASEFTFRYDYHVWVRQAPGKGLEWVSAISGSGGSTYYADSVKSRFTISRDNSKNTLYLQMNSLRAEDTAVYYCARLRADLGLYMDLWGRGTLVTVSS
VL: B3 VL with T19A, I20V, N31S, P56T, S94E, S95L, L96T, A98N, K106R
notes: Human Fab
B8: C0021177 Fab (Fab, V domains shown)
VH: B4 VH with I55A
VL: QSELTQPPTASAAPGQKVTISCSGSSSNIGNHYVSWYQQLPGTAPKLLIYDTTVLSSGIPDRFSGSKSGTSATLGITGLQTGDEADYYCGTWDELTSNLVFGGGTKLTVL
notes: Human Fab
B9: C0021180 Fab (Fab, V domains shown)
VH: B4 VH
VL: QSVLTQPPTVSAAPGRKVTISCSGSSSNIGDHHVSWYQQLPGAAPKLLIYDTDHMASGIPDRFSGSRSGTSATLGITGLQTGDEADYYCGTWDSSLSALVFGGGTKLTVL
notes: Human Fab

Legend:
[1] = target: T1, recombinant human monomeric ARG2; experiment: cell-based or functional assay
[2] = target: T2, biotinylated recombinant cynomolgus …; experiment: HTRF direct binding assay, biotinylated recombinant cynomolgus trimeric ARG2, streptavidin cryptate and anti-c-myc-XL665, Delta F %
[3] = target: T3, biotinylated recombinant human trimeric …; experiment: HTRF direct binding assay, biotinylated recombinant human trimeric ARG1
[4] = target: T4, THP-1 lysate derived human trimeric ARG2; experiment: cell-based or functional assay
[5] = target: T4, THP-1 lysate derived human trimeric ARG2; experiment: cell-based or functional assay; remark: listed apart in the source
[6] = target: T5, recombinant human trimeric ARG2 enzyme …; experiment: cell-based or functional assay
[7] = target: T6, biotinylated recombinant human trimeric …; experiment: BLI (OctetRED) extended assay, bio-ARG2 on streptavidin, Fab as analyte, 1:1 fit
Procedure: (§1) The affinities of the second-generation antibodies to human ARG2 were measured on the OctetRED system. A screening assay which stably captures His-tagged ARG2 as the ligand on an anti-His surface was utilised to screen the second-generation candidates as Fabs at an analyte range of 1.8 to 120 nM, with an association time of 5 minutes and a dissociation time of 10 minutes. Sensors were regenerated using 10 mM glycine pH 1.5 after each cycle. Based on this assay, six candidates with estimated affinities in the sub-nanomolar range were identified, and they were further profiled using an extended assay which is more suitable for antibodies of high affinities. In the extended assay, the association and dissociation times were extended to 10 and 40 minutes respectively, using a lower Fab analyte titration range of 0.47 to 30 nM, on a streptavidin surface which captures bio-ARG2 as the ligand. The sensorgrams were reference subtracted and fitted to the 1:1 binding model to estimate their binding affinities using the Octet analysis software.

[8] = target: T2, biotinylated recombinant cynomolgus …; experiment: BLI (OctetRED) extended assay, biotinylated cyno ARG2 on streptavidin, Fab as analyte, 1:1 fit
Procedure: as §1
The affinities of some of these antibodies to cynomolgus ARG2 were determined using the same assay, and the derived kinetic parameters are shown in Table 21.

[9] = target: T3, biotinylated recombinant human trimeric …; experiment: BLI (OctetRED), His-tagged ligand on anti-His surface

Row | Binder | THP-1 ARG2 EIA IC50 [4] | Kd [7] | koff [7] | kon [7] | Kd [8] | koff [8] | kon [8] | binding result [9] | also measured
1 | B1 |  |  |  |  |  |  |  |  | IC50 (read off the curve) [1]: ~6 nM
2 | B2 |  |  |  |  |  |  |  |  | binding result [2]: binds; binding result [3]: no binding (tested: log M -6 (1e-6 M))
3 | B3 | 649 nM |  |  |  |  |  |  |  | IC50 (read off the curve) [1]: ~4 nM
4 | B4 | 2.3 nM |  |  |  |  |  |  |  | THP-1 lysate ARG2 EIA IC50 [5]: 5.36 nM; EC50, In Presence of rhARG2 (T cell proliferation) [6]: 0.157 µM; Maximum % Proliferation, In Presence of rhARG2 [6]: 90%
5 | B5 | 3 nM |  |  |  |  |  |  |  | 
6 | B6 |  | 0.173 nM | 4.54e-05 s⁻¹ | 262000 M⁻¹ s⁻¹ | 0.108 nM | 4.64e-05 s⁻¹ | 429000 M⁻¹ s⁻¹ | no binding (tested: up to 120 nM Fab) | 
7 | B7 |  | 0.288 nM | 4.17e-05 s⁻¹ | 145000 M⁻¹ s⁻¹ | 0.173 nM | 4.43e-05 s⁻¹ | 257000 M⁻¹ s⁻¹ | no binding (tested: up to 120 nM Fab) | 
8 | B8 |  | 0.173 nM | 3.51e-05 s⁻¹ | 202000 M⁻¹ s⁻¹ | 0.0754 nM | 3.12e-05 s⁻¹ | 414000 M⁻¹ s⁻¹ | no binding (tested: up to 120 nM Fab) | 
9 | B9 |  | 0.437 nM | 0.000122 s⁻¹ | 278000 M⁻¹ s⁻¹ | 0.353 nM | 0.000135 s⁻¹ | 381000 M⁻¹ s⁻¹ | no binding (tested: up to 120 nM Fab) | 
